This data set can be described thus: soluble on expression in E. coli; label from the status in PepcDB or PDB records.
On to “MLTNEQLAALRSRLLDMKRETEDRLKQNDHFGMIRSHAHDAVGELASYDNHPADEATELYEREKDLALKEHAERELREIERALGAIADGTYGTCRVCGRPIPYERLEALPTTLYCREHSPDQTVSQKRPLEEGVLMPPFGKFDFDDRAESVAYDAEDAWQEVARYGTSDTPSDLGKNVDSYSEVYAESEENVGYVEDLENFAAVDLHGQHVRVYPTREHELLENILDDEGIMSNIGDLPAYEKDPYTSKDSYRRYDERPSQQHFGETTP”, for which the “soluble on expression in E. coli” value was “not soluble”. On to “MLTSEIAACCKKLRLSRNIVEMSGKIQADNHQEYLLKLLKSEIIHREKTRNAKLLRKAGFYTIKTFESFRFDEVTLPGDITPEYLKECEFVKNKTNIVMYGNVGTGKTHLSIALGVEACKRGYEVRFFRTSALVNKLAEEKRVGTLSSFLKKLNKAELLICDEWRYVPLDRIGAQLLFEVISERYENKAVIINTNIEFSRWVNIFYDEQMTGAIVDRILHHCHLLLFFGQSNRMRESRLNT”, for which the “soluble on expression in E. coli” value is on record as “not soluble”. On to “MLVEEAPVDADLGAAVTRLRALALEALCAGSLSAEQVLDHTRPAALALALAVCTPAEYARPWFRRATGDVRVLLARRLAEELGEDHVRWAAAIDLSGSFAGSVGELLHSDEAPGSVHRFLHPHRSSHATQNLLLALAPRDVAARYLAGLVETRRPNVVAYKMDWMLRSGPLSRPLVARGVGGSVGGQRELLGNDLCPDFVLEQVHGGYARHVMYREIIPPKVLKRAFRAYAASEPAHEVRAWAVSLLGERTDRLMDLAWSLTDAPTLLHRLVAAVLDRADPATLTCLYGALAEAAGPEPVWALDLERAGSLDAVQPAVRASMAAGSAEPLVEAAKRIPRRHWLDVLDEEAFGGQMLRDEAELDRTGHFPLEALVAARLDGRPERWAEVARQVAGGRMPVEAVVEGVVAAAIEEIGESAAKTAPETPTEAAPETTAEAAPQTPAEAAPQTPANAAPQTPTKPAPQPPAASPIAAPPAHAAPSASTT”, for which the “soluble on expression in E. coli” value is reported as “not soluble”. To “MLVFISNSRLSESEVQKLRDKHLIDDFIQRENKGYDFAAWHDGMEFVGFENLKQYDSVTVMNDTCFGPLWDMAPIYDNYESNPNVDFWGMTNHQGIKAGDIYIHEHLQSYFISFKKRLVESSVFQKFWKSVESFEDVQKVIDNYETLYTKKFRDAGFNYESILNTIPLNDKFFHSNFTIHYPHVLLDTGVPFIKVKTFDLTQHLAPYLLKEIEKRTDYPVELILSHMSDMSLPTPPYLLDRKVIEKSSQTYSDTKKIAVHLHTYYVDLLEDFLKQFENFHFTYDLFLTTDSEDKKAEIQSILDKNGKVARIFITGNRGRDVIPMLKLKDELSAYDYIGHFHTKKSPEYPYWVGDSWRNELFSMLIQPADNIIANLERDDRLGLVIADIPSFFRYTKIVDPWNENRFAEGMNDLWERMDLGRDIDFDKMNTFIMSYGTFIWFKYDALKPLFDLDLQDEEIPAEPIPQHTILHSIERILVYLAWARRYDYAIAKNDIYITPFVDNVVLNIRPDTLPNTYINFDNIGGIKGALKYIIVGPLEHHHHHH” belongs “not soluble”. With “MLVLFEVAAGYAVFKLSNEKKLKNVDNIWEEFSTAEKAQENLQLVSFKKFKTTAGAVEATSEITEGKLSKTLKKLLKSSVDETEKLAVGDAKLGNLIKEKLSLNCVHDSSINELMRGVRAHIEDLLAEHKEEMNAMNLAVAHSLARYKVKFNPEKIDTMIVQAVSLLDDLDKELNNYVMRVREWYGWHFPELGKTIQDHQAYAKIIKAIGMRQNCINTDLSSILPEELEEKVKEDAEISMGTDISDIDLIHIKGLCDQVIELSAYRAQLFDYLKNRMTALAPNLTVLLGELVGARLISHAGSLVSLAKAPASTIQILGAEKALFRALKTKKDTPKYGLIYHAQLITQAPPKVKGKMARKLAAKCSLATRIDALSDESATNEIGIECRAALENVLRTESERGPSKNKSFGSHRHDKYEFKSETYEYDASADTPASRKHKRFDDNEESTNAIKKMKIEEVKEEDEAEPEKKKKKKEKKAKKADTDSDEE”, the “soluble on expression in E. coli” value is reported as “not soluble”. “MMCTKEFDYLNEANQATRFQNVWLPGRYTDCNHMKRKQEEVNGEENSTWRSSSSFQ”: the “soluble on expression in E. coli” value is “not soluble”. In the case of “MMDFEDFGNPLAGKPLSQADKAAAVLLAMGKGVAGKLLKFFTQHELQMIISSAQTLRVIPPDELAQIVAEFEDLFTEGTGLMDNAKAIESILEEGLTPEEVDSLLGRRAAFQAYEASIWDRLQEAEPEFVGKFLLREHPQTIAYILSMLPSSFGAKVLLTIPEEQRADIMNRTVNMKEVSPTAAQIIEKRVVNLINEIEAERNAGGSTKVADLMNELDKPQVDTLLSSLETLSKEAANKVKPKIFLFDDLMFMPQRSRVLLLNDVSADVLTMALRGATVEIKECVLSSISPRQRRMIESDLAVPQASLNTREVAIARRAVAQEAIRLANSGQIQLKDVAAEEQSAAA”, the “soluble on expression in E. coli” value is reported as “not soluble”. On to “MMEMITIKPGKITVQANPNMPKEVAELFRKQHYEIVGRHSGVKLCHWLKKSLTEGRFCYKQKFYGIHSHRCLQMTPVLAWCTHNCIFCWRPMENFLGTELPQPWDDPAFIVEESIKAQRKLLIGYKGNPKVDKKKFEEAWNPTHAAISLSGEPMLYPYMGDLVEEFHKRGFTTFIVTNGTIPERLEEMIKEDKLPTQLYVSITAPDIETYNSVNIPMIPDGWERILRFLELMRDLPTRTVVRLTLVKGENMHSPEKYAKLILKARPMFVEAKAYMFVGYSRNRLTINNMPSHQDIREFAEALVKHLPGYHIEDEYEPSRVVLIMRDDVDPQGTGVEGRFIKHLEHHHHHH”, for which the “soluble on expression in E. coli” value is “not soluble”.

Consider “MMEYKIVENGLTYRIGNGASVPISNTGELIKGLRNYGPYEVPSLKYNQIALIHNNQFSSLINQLKSQISSKIDEVWHIHNINISEFIYDSPHFDSIKSQVDNAIDTGVDGIMLVLPEYNTPLYYKLKSYLINSIPSQFMRYDILSNRNLTFYVDNLLVQFVSKLGGKPWILNVDPEKGSDIIIGTGATRIDNVNLFCFAMVFKKDGTMLWNEISPIVTSSEYLTYLKSTIKKVVYGFKKSNPDWDVEKLTLHVSGKRPKMKDGETKILKETVEELKKQEMVSRDVKYAILHLNETHPFWVMGDPNNRFHPYEGTKVKLSSKRYLLTLLQPYLKRNGLEMVTPIKPLSVEIVSDNWTSEEYYHNVHEILDEIYYLSKMNWRGFRSRNLPVTVNYPKLVAGIIANVNRYGGYPINPEGNRSLQTNPWFL”, for which the “soluble on expression in E. coli” value is “soluble”. Turning to “MMFLRQEDFATVVRSTPLVSLDFIVENSRGEFLLGKRTNRPAQGYWFVPGGRVQKDETLEAAFERLTMAELGLRLPITAGQFYGVWQHFYDDNFSGTDFTTHYVVLGFRFRVSEEELLLPDEQHDDYRWLTSDALLASDNVHANSRAYFLAEKRTGVPGL”, the “soluble on expression in E. coli” value is recorded as “soluble”. For the sequence “MMGFEWGFKPSSKITQSTVSSQGTGNVMIPTAGVKQKRRYANEEQEEEELPRNKNVMKYGGVSKRRPQPGSLIRGQPLPLQRGMELMNKNQLQQLLVDLMTKHPEIQQSVHTRVIGLDFSIQKCLDMLKQKSEAVYQSIPYNRSYESNKLDDYAFVRMKPQILEFLNCLVDFILDNIPPRLENLHASLKFLDICTELVIKLPRFELASNNYYYDKCIEQLSHVWCTLIEHVARDRIILLADNSSVWKSHMTRLQVYNEHSNGLLERPLQLFKSLDMGSPSAASSSTLSLQESIIYHHDTMTANENNNNSGSAATDSPFN”, the “soluble on expression in E. coli” value is on record as “soluble”.

With “MMHFEVHGRTDAEAPTILLSSGLGGSSAYWLPQIEALSDHFRIVTYDHRGTGRTGGEVPTEGGISAMADDVLEIVSALNLEKFHFMGHALGGLIGLDIALRQPRLIDRLVLINAWSKADPHSGRCFDVRIELLEKSGVDAFVKAQPLFLYPAAWMSEHQERLARDDAHGVAHFQGKTNVLRRIAALRAFDIDARLGEIGNPVLVVATKDDLLVPYTRSLRLAEGLPQSELCLLDFGAHAVNITEPDLFNTRLLQFLLPADQT”, the “soluble on expression in E. coli” value is “not soluble”. To “MMKEFTPAPDSASIVSVTDRVKPVALGMGVTSVHFLGDRAAFVGGEENVAFVDSQGEITTVAVHGGGILSTASDGKRLVMGGDDGKVVSLDAKGEVTLLATDPKRRWIDAVALHADGAFAWSAGKTATVKSGKTEEKSLEVPSTVGGLAFAPKGLRLAIAHYNGATLWFPNMAASAEFLPWAGSHHAVTFSPDNKFLVTAMHEPALHGWRLADNRHMRMTGYPGRVRSMSWSAGGKALATSGADTVILWPFGSKDGPMGKEPAMLAPLQARVSVVACHPKNDILAAGYSDGTVLMVRLEDGAEILVRRNGTPPVAALAWNAKGTLLAFADENGDGGLLELLEHHHHHH” belongs “soluble”; to “MMMLPEACIANILAFTSPADAFSSSEVSSVFRLAGDSDFVWEKFLPSDYKSLISQSTDHHWNISSKKEIYRCLCDSLLIDNARKLFKINKFSGKISYVLSARDISITHSDHASYWSWSNVSDSRFSESAELIITDRLEIEGKIQTRVLSANTRYGAYLIVKVTKGAYGLDLVPAETSIKSKNGQISKSATYLCCLDEKKQQMKRLFYGNREERMAMTVEAVGGDGKRREPKCRDDGWMEIELGEFETREGEDDEVNMTLTEVKGYQLKGGILIDGIEVRPKT”, “soluble”.

Turning to “MMNEYRFHLEKYRLGNRYTCPNCERKRCFTRYIDDEGEVSFPDNVGKCDHEHSCGYHYTPKDYFREHPDFLSKDKLPYPTRGNTQPKVVEKPISYIANAIMERSLSHYGINPLYQYLSKVFGEQETERLMKMYHVGTSYKWGGSTIYWQVDKDDKVRTGKVMLYNPKDGHRVKEPRSYVGWAHAFLHLPDFNLCQCFFGEHLLAQHPTMSVAIVESEKTAIIASHFIPNFIWLATGGMHGCLNQIAVKVLGGRDIILFPDLGATDKWKSKIPLLQSVCKRVVISNILEDNATDEQKTKGLDIADFLLMAETPQMALQRLIKQHPPLKHLIDCLGLVLVEES”, the “soluble on expression in E. coli” value is reported as “not soluble”. Regarding “MMNTSDNHALGDFLRARRQRLDPATFGFPAGRRRTPGLRREEVAQLASISPTWYTWLEQGRGGAPSREVLERIARGLRLTTPEREHLFILAFGHPPQTRLTVTDDMTPRLQRVLDAFTIPAIIRTASWDVIAWNAPAARVLTDYSQLPLAERNVLRRLFTRPEARCTLEDWQRVGQLIVNAFRADVTRMGATKETDQLIAELSQQSVEFARFWQSHDVAGHGEGYKRINHPEMGPLDLEFTSFAVEGRPDLSLLVFNPATTESQRKIHGLLQGAGSAPEES”, the “soluble on expression in E. coli” value is “soluble”.

Take “MMPGYQSADEFADKEKGWTGVHQWEKEMAKADEKYGPIFAKFAAMPIEEVAKDPQAVKMGGRLFASNCSICHGSDAKGAYGFPNLTDADWRWGGEPETIKTTIMAGRHAAMPAWGEVIGEEGVKNVAAFVLTQMDGRKLPEGAKADIEAGKQVFATTCVACHGPEGKGTPAMGAPDLTHPGAFIYGSSFAQLQQTIRYGRQGVMPAQQEHLGNDKVHLLAAYVYSLSHGE”: the “soluble on expression in E. coli” value is reported as “not soluble”. As for “MMPTSTCGYPGMAEQSTVLYTAVGYMVGFVSLFNHTHSQDNFFHRGCYYGCDDDNMRFAFFSKAALEFLLRSNKKPDIIHCHDWQTGLIPIMLYEIYKYHGMEYQRVCYTIHNFKHQGMGGVGTLQATALNEASYYFQYNKLRDNFNPFALNLMKGGIIYSNAVTTVSPHHAVEAQTSE”, the “soluble on expression in E. coli” value is listed as “not soluble”. As to “MMRGGMGNMNNMMKQMQKMQKDMAKAQEELGEKTVEGTAGGGMITVIANGHKQILEVKIKEEVVDPEDIEMLQDLVLAATNDALKKADELSNSTMGKFTKGLNLPGGMF”, the “soluble on expression in E. coli” value is listed as “not soluble”. As for “MMRPDAKVEKVYLYPKPVDFRKSIDGLAALVELDIKVAVFDPVLFVFLNRHRNRVKILYWERNGFCLWLKRLESERFKTSPDETDEAIVLTVQELNWLLDGFDLWRNRPHKVLTPRFVA”, the entry is “not soluble”. As to “MMTDRTERRRRLTHAACTPSANNQRTTRLPPHPGFFSWSNPACDDGLFLYRTTVSRGVDTQRRRRSHPGFFSCRYHPSTVSLARRHRGPGKRISLRTEISKDADPISTVTETRWFLLNFQCIEPPLEHHHHHH”, the “soluble on expression in E. coli” value is “soluble”.

Source of the values: the DeepSol protein solubility set.
